Data reported in article PMC4742251, “The Malarial Exported PFA0660w Is an Hsp40 Co-Chaperone of PfHsp70-x” (PLoS ONE, 2016).

Tests used:
Details in all cases: both partners purified
HSPA1A-(His)6 [1] = molecular target: T1, HSPA1A-(His)6 (human, UniProt P0DMV8 1-641); test: SPR; Hsp70s amine-coupled to a GLC chip (ProteOn XPR36); BSA, Hsj1a or PFA0660w at 1 μM as analyte in PBST pH 7.4, with and without 1 mM ATP; read qualitatively
T1 construct: human Hsp70 (HSPA1A); also called human Hsp70; HSPAIA

(His)6-PfHsp70-x = (His)6-PfHsp70-x (Plasmodium falciparum); test: SPR; Hsp70s amine-coupled to a GLC chip (ProteOn XPR36); PFA0660w 200-1000 nM as analyte in PBST pH 7.4 with 1 mM ATP; 60 μl/min, 90 s contact, 300 s dissociation; separate fits of association and dissociation, KD calculated from the rate constants
(His)6-PfHsp70-1 = molecular target: T2, (His)6-PfHsp70-1 (Plasmodium falciparum, UniProt Q8IB24 1-677); test: as above
T2 construct: PfHsp70-1, parasite-resident Hsp70 of Plasmodium falciparum

HSPA1A-(His)6 [2] = molecular target: T1, HSPA1A-(His)6; test: as above

T1 sequence (P0DMV8 whole entry): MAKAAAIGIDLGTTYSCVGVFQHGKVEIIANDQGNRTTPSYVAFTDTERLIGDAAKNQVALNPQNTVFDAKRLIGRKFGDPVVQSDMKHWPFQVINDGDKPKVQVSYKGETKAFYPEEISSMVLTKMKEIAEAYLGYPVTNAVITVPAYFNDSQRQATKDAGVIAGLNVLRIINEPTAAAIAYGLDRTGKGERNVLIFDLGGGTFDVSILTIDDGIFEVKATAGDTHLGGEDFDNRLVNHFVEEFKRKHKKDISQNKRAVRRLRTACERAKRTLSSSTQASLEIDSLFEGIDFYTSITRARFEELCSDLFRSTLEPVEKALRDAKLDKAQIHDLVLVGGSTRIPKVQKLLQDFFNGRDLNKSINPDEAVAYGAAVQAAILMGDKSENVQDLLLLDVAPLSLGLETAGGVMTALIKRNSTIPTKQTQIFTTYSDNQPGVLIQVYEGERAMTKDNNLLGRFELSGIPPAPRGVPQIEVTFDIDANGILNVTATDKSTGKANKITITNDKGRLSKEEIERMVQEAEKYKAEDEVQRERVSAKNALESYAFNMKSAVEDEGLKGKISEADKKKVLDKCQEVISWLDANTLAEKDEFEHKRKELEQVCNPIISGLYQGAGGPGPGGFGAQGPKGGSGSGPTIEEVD

B1: (His)6-Hsj1a (natural protein, UniProt P25686-2 1-277, looked up)
chain: MASYYEILDVPRSASADDIKKAYRRKALQWHPDKNPDNKEFAEKKFKEVAEAYEVLSDKHKREIYDRYGREGLTGTGTGPSRAEAGSGGPGFTFTFRSPEEVFREFFGSGDPFAELFDDLGPFSELQNRGSRHSGPFFTFSSSFPGHSDFSSSSFSFSPGAGAFRSVSTSTTFVQGRRITTRRIMENGQERVEVEEDGQLKSVTINGVPDDLALGLELSRREQQPSVTSRSGGTQVQQTPASCPLDSDLSEDEDLQLAMAYSLSEMEAAGKKPADVF
notes: Control Hsp40; also called DNAJB2a
B1: binds (HSPA1A-(His)6 [1]).

B2: (His)6-PFA0660w (natural protein)
chain: AEGNKNFFFNKDNGVFGKSSMDYYTLLGVDKGCSEDDLRRAYLKLAMKWHPDKHVNKGSKVEAEEKFKNICEAYSVLSDNEKRVKYDLFGMDALKQSGFNSSNFQGNISINPLEVFTKAYSFYNKYFSKSSGAGNHNIFTHIKNLYPLRNDFSEDESSYNDVEEYEVPLYVTLEDLYNGCTKTLKVTRKRYDGCYLYYEDYFINVDIKQGWNNGTKITFHGEGDQSSPDSYPGDLVLVLQTKKHSKFVRKSRDLYYRHIITLEQSLTGFDFVIKSLDNRDIHIQIDEVVKPDTKKVIKNEGMPYSRDPSIRGNLIVEFDIIYPNTIKKEQKKLIKEIFKESY
For B2, the Kd ((His)6-PfHsp70-x) was 37 nM, the Kd ((His)6-PfHsp70-1) was 251 nM and the Kd (HSPA1A-(His)6 [2]) was 64 nM.
